Results published in paper PMC7170481, “Inhibition of Ammonia Monooxygenase from Ammonia-Oxidizing Archaea by Linear and Aromatic Alkynes” (Applied and Environmental Microbiology, 2020).

Substrate: N
Test: cells, lysate or membranes
Settings: intact cells, total NH3 + NH4+, 0.1% DMSO, no inhibitor, whole-cell nitrite read-out
[1] = 10 mM HEPES pH 7, 37°C, pH 7.0, 37.0 °C
[2] = 50 mM sodium phosphate pH 7.7, 2 mM MgCl2, 30°C, pH 7.7, 30.0 °C

| Protein | Km [1] | Vmax [1] | Km [2] | Vmax [2] |
| --- | --- | --- | --- | --- |
| AMO from "Ca. Nitrosocosmicus franklandus" C13 (Candidatus Nitrosocosmicus franklandianus) (protein) chain 1: MVWLRRTTHYLFIVVVAVNSTLLTINAGDYIFYTDWAWTSFVVFSISQSTMLVVGAIYYMLFTGVPGTATYYATIMTIYTWVAKGAWFALGYPYDFVVVPVWIPSAMLLDLAYWATRRNKHAAILIGGVLVGMSLPLFNMINLLLVADPLEMAFKYPRPTLPPYMTPIEPQVGKFYNSPVALGAGAGAVLCVPIAALGAKLNTWTYRWMAAWSKWD chain 2: MNEKSGNKPAMVFLIVTFVAGASILASIIALLPLADGHGVQAQLQSRFVRINNEAFSAQSLNTGDTLVVTGELQSLVNRPMRGWISLFSESTNAGNRWEFVSRDPPGNIIEIQPQETVPYRLEAKALEPGVYHVHTQLNLASVGPGLGPGQTIQVVGDPILKPIPWNNIIYQSIIIAAGLGVTFATRPWQVI chain 3: MAQMPALIPKEVEIQRLKKIYLMVIMLGSIAASVEVDNFVDGSLHQTAIRDSAFTPAHWWLYSHFIALPLGWGFVAMYDRRVPVLRGPNNSMNTGLKITIIGYLATMFTIGINEMWHFWFVEEIFSVPNHWMFNMGVVVAFMGALAYVVRVYARLVELGAETPARNPYVAEMYKLALEGKLYSRSIP | 26.7 (4.7) μM | 0.0641 µmol/min/mg |  |  |
| AMO from Nitrosomonas europaea (Nitrosomonas europaea ATCC 19718) (protein) chain 1: SIFRTEEILKAAKMPPEAVHMSRLIDAVYFPILIILLVGTYHMHFMLLAGDWDFWMDWKDRQWWPVVTPIVGITYCSAIMYYLWVNYRQPFGATLCVVCLLIGEWLTRYWGFYWWSHYPINFVTPGIMLPGALMLDFTLYLTRNWLVTALVGGGFFGLLFYPGNWPIFGPTHLPIVVEGTLLSMADYMGHLYVRTGTPEYVRHIEQGSLRTFGGHTTVIAAFFSAFVSMLMFTVWWYLGKVYCTAFFYVKGKRGRIVHRNDVTAFGEEGFPEGIK chain 2: MTVTLDVSTVAAHGERSQEPFLRMRTVQWYDIKWGPEVTKVNENAKITGKFHLAEDWPRAAAQPDFSFFNVGSPSPVFVRLSTKINGHPWFISGPLQIGRDYEFEVNLRARIPGRHHMHAMLNVKDAGPIAGPGAWMNITGSWDDFTNPLKLLTGETIDSETFNLSNGIFWHVVWMSIGIFWIGVFTARPMFLPRSRVLLAYGDDLLMDPMDKKITWVLAILTLALVWGGYRYTENKHPYTVPIQAGQSKVAALPVAPNPVSIVITDANYDVPGRALRVTMEVTNNGDIPVTFGEFTTAGIRFINSTGRKYLDPQYPRELIAVGLNFDDESAIQPGQTKELKMEAKDALWEIQRLMALLGDPESRFGGLLMSWDAEGNRHINSIAGPVIPVFTKL chain 3: MATTLGTSSASSVSSRGYDMSLWYDSKFYKFGMITMLLVAIFWVWYQRYFAYSHGMDSMEPEFDRVWMGLWRVHMAIMPLFALVTWGWILKTRDTKEQLDNLDPKLEIKRYFYYMMWLGVYIFGVYWGGSFFTEQDASWHQVIIRDTSFTPSHVVMFYGSFPMYIVCGVATYLYAMTRLPLFSRGISFPLVMAIAGPLMILPNVGLNEWGHAFWFMEELFSAPLHWGFVVLGWAGLFQGGVAAQIITRYSNLTDVVWNNQSKEILNNRIVA |  |  | 520.3 (19.6) μM | 0.324 µmol/min/mg |
